± gives the half width of the 95% confidence interval.
Key:
[1] = folding stability dG unfold from chymotrypsin proteolysis; higher = more stable
Experimental: (§1)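 Folding stability of de novo designed mini-proteins (<80 aa, no Cys; designed by TrROS, TrMRF, ProteinMPNN and the joint model) was measured by cDNA display proteolysis with trypsin and chymotrypsin. Each protease was used at 11 concentrations in a threefold dilution series plus a no-protease condition. K50 was inferred by Bayesian fitting of sequencing counts, and dG unfold was derived against a sequence-predicted unfolded-state K50 (Tsuboyama et al. method). Sequences shown include variable-length N-terminal GS-type padding (SAGGSAGG...) inside a display construct carrying a PA tag. Rows were kept only if the AF2 dimer inter-PAE was >15, to exclude likely homo-oligomers.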

[2] = folding stability dG unfold (combined trypsin and chymotrypsin); higher = more stable
Experimental: as §1

Sequence	folding stability dG unfold [1]	folding stability dG unfold [2]
MPSVTLPVTLVLDTRRPDGRPLTPEQVRALAEAAVRELAEATGVDVEADVTVTPLGPEGRAVVDVVVTVRPS [r1_231_TrMRF]	0.746 ± 0.1 kcal/mol	0.201 ± 0.14 kcal/mol
MTEKKEESLGEKKRITTTKPQEDGNPVVTERIIDPNGTIEKVIVKKSSPNKPTTEELPPFSTSNKEIVEKLS [r1_301_JUSTAS]	-0.691 ± 0.14 kcal/mol	-0.821 ± 0.4 kcal/mol
MTTETLEEEEIPEEGIRIETVRTTDASGKPSTETVVTYEEVPLEPENTAPPVKFDDKGKRYNPGIGLEGLDS [r1_270_JUSTAS]	-0.664 ± 0.24 kcal/mol	< -1 kcal/mol
NIRFPDGREIEIPPEPGEEYEIMLPNGPEIKIKKIKYENGEPTIEIERKDGGKKEHEMPPNQPDQILDAIRS [r1_66_TrROS]	0.421 ± 0.051 kcal/mol	0.0319 ± 0.29 kcal/mol
RTISIDEIREKLGMDPDDLKNMPMEEIADEIRDELPPGRAKGVKISPNEDDGMWTITVKYKNGRPVEITIDS [r1_340_TrROS]	0.671 ± 0.16 kcal/mol	0.156 ± 0.37 kcal/mol
SADTLTVSDLMHKLMEEERKKNPEPWSPEDMQEWAKTAARKLADKEGIPIKDVEVEPTDGYPSITVKVPSAG [r14_147_TrROS]	-0.691 ± 0.73 kcal/mol	< -1 kcal/mol
SAGATESETFALPGGEEVTVTTTYTPLPGDALRTTVTTWTTTLGPSGPAVTTATTTTTYPPELAAAGASAGG [r19_63_JUSTAS]	0.0387 ± 0.14 kcal/mol	-0.807 ± 0.24 kcal/mol
SAGAVSTFENSNPSISLEELKEKIEEKLGIELVELKKVEDVPGGLKYEIVVPKIKGEKPFSAEEIAKLLSAG [r5_550_JUSTAS]	-0.0356 ± 0.5 kcal/mol	-0.434 ± 0.56 kcal/mol
SAGDISPSDPVTVRVEVEKDPNSKSTLVRVDEETPTGRRLERRIPADGPVVVTEREPASGATRVTVEPASAG [r5_55_JUSTAS]	0.00901 ± 0.071 kcal/mol	-0.563 ± 0.11 kcal/mol
SAGDWIREAIKKAGYDNVEIEEIQPNPNGGVSIVIQPSPGMPREQQRRAQEEIVDALREESPDFKIHIHSAG [r5_101_TrROS]	0.584 ± 0.087 kcal/mol	0.192 ± 0.26 kcal/mol
SAGEGSRSPGVVLHVTTPTEPLVVREPVAPDEDPEAVLERLAAEVRAALGPDTTVSGEVLSPAELARAASAG [r5_583_JUSTAS]	-0.465 ± 0.18 kcal/mol	-0.738 ± 0.23 kcal/mol
SAGEYKVEEKDGKLYVTYPNGEKKEVEVKPAPPPVVTIKVKSVEELKALAEELNLEITEISEDTVVVKFSAG [r5_328_TrROS_Hall]	0.0799 ± 0.38 kcal/mol	-0.643 ± 0.62 kcal/mol
SAGGAGQRVVLSSDKSLEDLEKLREENPDVSIEVTEINKLEPVKPENGGLEEVPSEIVAELTPGERRSAGGS [r8_172_JUSTAS]	0.401 ± 0.051 kcal/mol	-0.0394 ± 0.076 kcal/mol
SAGGAIGPEEAERLAQEIADRLAAEFREAEPDVEVEVEAEVFPPEGVIRVRPRLPDGRLLAEVTFPVGSAGG [r13_247_TrMRF]	0.498 ± 0.041 kcal/mol	0.0873 ± 0.067 kcal/mol
SAGGDKLGKPLGGKPVTFDISKEELSYNPSNGTWSKSVVTTPRTVFYPPDAEPDPAVFASGAGSVTLASAGG [r13_753_JUSTAS]	0.281 ± 0.091 kcal/mol	-0.184 ± 0.077 kcal/mol
SAGGEEPKRKTVEVPAGQPISELLDALKQYDEVQIRMGNGEEHEIPPNDPPDLEDLPLPPGNTFEIEVSAGG [r13_399_TrROS]	-0.126 ± 0.12 kcal/mol	< -1 kcal/mol
SAGGFKIERERDPDNGIRKIEFRFPDNGYRVKATINPDNDKIHIWGPNPAIREALPELGITNVEVEPWSAGG [r13_511_TrROS]	-0.811 ± 0.78 kcal/mol	< -1 kcal/mol
SAGGGAMLVGETTTSKWIEKTIRNENGEVETKKVKVTTKPVTYKLPDGTLATETKVTIIYPDGSTKEESAGG [r13_113_JUSTAS]	0.103 ± 0.21 kcal/mol	-0.181 ± 0.31 kcal/mol
SAGGGMEEVAKKLGVPEDARLEVLKVERYYYTREVRDPLFEEGKPVGEKIIPRPYYSEKVDYKLFDKPSAGG [r13_482_JUSTAS]	-0.288 ± 0.32 kcal/mol	< -1 kcal/mol
SAGGGMKTSKVSTSTTTTTVPGTGAPVTVEVTSTTTTFGPNGPAVVTTTSLTYDEAGTPTTTTTTTLSAGGS [r16_200_JUSTAS]	0.46 ± 0.11 kcal/mol	-0.133 ± 0.13 kcal/mol
SAGGGSMVEKTISTTDPKYVKILKKLEEAPEDEVVTIKEPNKDIEVLSFDKVDDNYKLLMKLPPSILSAGGS [r16_404_JUSTAS]	-0.454 ± 0.38 kcal/mol	-0.773 ± 0.46 kcal/mol

Sequence	folding stability dG unfold [1]	folding stability dG unfold [2]
SAGGGSMVIPVSPEEKEAALKLLEALPSKDVKVTVTDPATGTTTTLTPEEAKKLIEATDTPLVLTLSSAGGS [r16_263_JUSTAS]	2.92 ± 0.08 kcal/mol	3.42 ± 0.16 kcal/mol
SAGGISVEIYPPNGKKVELEGDTIPELMDKFPPGGNYVIKIEQPHVNPGNGKKQPMEMEFRVPPDDFSAGGS [r16_806_TrROS]	-0.202 ± 0.23 kcal/mol	-0.697 ± 0.33 kcal/mol
SAGGKARITRIEAEPDPLRVEVEVELPDGRKVRAVAVVPPGEGGVARVRTAVDFGEGVVPAADIEIPPSAGG [r13_728_TrMRF]	0.704 ± 0.016 kcal/mol	0.236 ± 0.052 kcal/mol
SAGGKKVIIPFKSPEQVKDWLENAPPGHDKVEIFSPETGYMAEFEVDPKENKIKEIKWERFDPDDGMFSAGG [r13_945_TrROS]	0.0373 ± 0.28 kcal/mol	-0.372 ± 0.46 kcal/mol
SAGGMGVRVEEKVLATSESSTPDGTPVTFTETETKITLPPGTVVTVKKLLETGGGGRKVLEETTSPLASAGG [r13_898_JUSTAS]	0.092 ± 0.039 kcal/mol	-0.295 ± 0.14 kcal/mol
SAGGMITLEEPELDPSRPVTRVKVLTEIPAPGGVPVVVETTYTDTRAPGDPSVTVVTSTTTVVPGAAGSAGG [r13_131_JUSTAS]	-0.0242 ± 0.055 kcal/mol	-0.834 ± 0.27 kcal/mol
SAGGMKIEKTPVKIEKEGEDTVIEYKETEYLPDGTVKEYEGILRIPKNTGKITTLEKKLLSTEPILGSAGGS [r16_729_JUSTAS]	-0.377 ± 0.3 kcal/mol	< -1 kcal/mol
SAGGMLITEEDLAALLAAVPPERPDAVVTLTVGRLQRILPGSTGENEPIPSSVEPSVVTLPVTVPPASAGGS [r16_708_JUSTAS]	-0.833 ± 0.24 kcal/mol	< -1 kcal/mol
SAGGMLSRESTDPGPGRRTLTREEPLPDGTVPVTVTTESPDPSVTTVETRLVFPGPAVETPTRTAAPSAGGS [r16_684_JUSTAS]	0.78 ± 0.038 kcal/mol	0.281 ± 0.052 kcal/mol
SAGGMTIVSSGPSIEQALQEAAEAGGDATVIYKEPESNTIITLDVKYDPAPRTITVLSETETPVPPLLSAGG [r13_309_JUSTAS]	0.758 ± 0.079 kcal/mol	0.17 ± 0.1 kcal/mol
SAGGMTLDQLKENIKSVEVYPHPDGGYRMRVQIPQPNPDGKPKPREFNIPMPPNDPNMSADNVIDQILSAGG [r13_319_TrROS]	-0.353 ± 0.27 kcal/mol	< -1 kcal/mol
SAGGMTTTTTLEVAPDTPYEAALAEIEAALAAAAAGRPVASSPVAARPGGARTLPLVVTDGAVTALGSAGGS [r8_7_JUSTAS]	0.954 ± 0.041 kcal/mol	0.35 ± 0.07 kcal/mol
SAGGMTTTVTVTEDPATGTLTVPITIPRLDAEGNPTTEVLTVTLPASPEAEAAIAALAAALGIPAAASAGGS [r8_381_JUSTAS]	0.943 ± 0.067 kcal/mol	0.369 ± 0.1 kcal/mol
SAGGMTVTLRLTDPAGEEYTVTVTKTEGKSTATVYGPGGELVETRDFSSAEEAIAYLRAQGYTVEVIESAGG [r13_315_JUSTAS]	5.323 ± 0.049 kcal/mol	5.34 ± 0.081 kcal/mol
SAGGMTVVSTETDTATGRPVRTVRLPPEASLRELAALDGWVRLVDPAPDREVELPAEDPEAVVEALLASAGG [r13_604_JUSTAS]	0.0196 ± 0.13 kcal/mol	-0.504 ± 0.22 kcal/mol
SAGGNLRIRIEMENKDGNKRKIPIPEEEFNRIKESLKNGKPITPEPASWISDYARRNGYDVKIVDIYSAGGS [r8_159_TrROS]	-0.101 ± 0.36 kcal/mol	-0.35 ± 0.33 kcal/mol
SAGGPNFMFRVKMPHPRPKKDPEDGKEKWRPQRHEHTVPFPADDPEQALDELADNMPPNNFKITDITSAGGS [r16_459_TrROS]	0.45 ± 0.22 kcal/mol	-0.0582 ± 0.18 kcal/mol
SAGGSAEIEPVSSEVDPNSDRTVTTNRIPGSGKTRTVTYDSSNPGVTTVTTYAPGGKPLSTTTLPTSAGGSA [r15_974_JUSTAS]	-0.474 ± 0.28 kcal/mol	< -1 kcal/mol
SAGGSAGGALTPTDEVTLTLPDGTVRPGRVEVLPDNVVRVRLEGSEVLLTRDPEGDEVTVERVASAGGSAGG [r6_68_JUSTAS]	0.964 ± 0.011 kcal/mol	0.503 ± 0.047 kcal/mol
SAMKVIVKIKIYDKNGKLVKEIEIPAEILEKDPEKLKELAEKLAEELKKKGYKVEIELVEVVPVEEEEESAG [r14_972_TrROS_Hall]	4.5 ± 0.41 kcal/mol	
SKKFQIYNPDEGQPFQIEVDPEDGKVTVEWPNGEEEEAPVKDIEIDPGHGWIKIKHPGKEVTIRIPPDMFSA [r9_325_TrROS]	0.00862 ± 0.44 kcal/mol	

Source: the supplement of paper PMC12764529
